Experimental data taken from patent publication US20140356345.

T1: 33-mer gliadin peptide
T1 sequence: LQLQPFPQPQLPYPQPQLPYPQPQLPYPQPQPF

T2: 33-mer gliadin peptide
T2 chain: T1 sequence

B1: endopep-40 (protein)
chain: MSRRVTGTILGGLILAMVPFLSTAANAAPQAAPASVSHPFHHSCATVKPGRASCNALVRSDIAQSAATLAHQAAAPSGLSPANLQSAYKLPSSTAGSGQTVAIVDAYDAPTAEADLNVYRSQFGLGACTTANGCFKKVDQNGGTSYPRKDGGWAQEISLDLDMVSAVCPNCKIVLVEAKTNSFANLGTAENTAASLANVISNSYGGSDASDASYGSYYNHPGKAITVSSGDAGYGVEYPASSHYVTAVGGTSLRTASTSRGWSETAWSGAGSGCSAYNTALSGQSGLTGCSRRAVADVSAVADPATGVAVYDSTAYQGQSGWMVFGGTSVAAPIIGGVYGLAANAASIDNNYPYAHTSSLFDVTSGSNGTCTTTKWCTAGTGWDGPTGLGTPNGTGAF
B2: endopep-140 (protein)
chain: MPDLPTQRRSPRRSRRPAVLARLAGLRVGALVLALAVTTLTLISMPSANAAPAKPVVPHAKASSPTAQGQHPTSRVCRTPGRANEMTCLAMVRDDVIGPKGVQANDAPAGFGPADLLNAYNLPSAGSTETVAIVDAFDNPNAEADLGVYRQQYGLPACTTANGCFKKIDQRGGTSYPPPDAGWAGEIALDIDMVSAICPTCKILLVEADDNYMDNLGTAVNQAVSQGAKFVSNSYGGSEGSDEGQADDAYFHHDGVAITASSGDSGYGASYPAASPYVTSVGGTSLAKDTSSSRGWTESTWNGAGSGCSAYETKPSFQKDTGCARRTIADVSAVADPNTGVAVYNGGWHVYGGTSVSAPIIASVYALGGAPAAGSAPNSFPYDHPADLNDVTSGSNGSCSPAYLCTAGTGYDGPTGLGTPNGIAAFRSGPHAVVTGTVTDGTAPLASAQVKAGDVTATTDGQGHYTLSVPPGTYDVSASKFGYTGKTISGVQVADGQTVTEDFALTAKARVDVSGLVRDGSGHGWPVYATVRVKDQPTAVAYTDPKTGRYTLSLPTDDTYTLQVDPLYPGYTQDSHDVTVTSADVVHDVNVAVDQTTCSAPGYSYHYAGATQPFDGTTAPAGWTVDDKVGNGQTWVFNDPGSRGNKTGGTGGFAVIDSDHYGSGNTQDSTLFSPVTDFSARTHPILSFRSDWYGYTGQAGDLDLSVDGGTTWTNLKHYTASERGPRTETMDLSAAAGKSAVQVRFHFTGKFGYYWQVDDVFLGDRTCDPTSGGLVVGQVTDANTGAGVAGATVTSVDRPAEHATSAATPDDPNLGDGLFWMFSSVTGSHKFTATAGNYDSHDVTVNVAANWATAADIALSAPRLTVTPGAISKTVGWQKAATAALTLKNTGTSPVTAKIGEQPGGSTTATAGAPLQRVKGDFASGRLQQGKASGAKAGVTPYAPPWTAIADYASPIMDNGAVALNGKIYSVAGVDGANVLNKAYAYDPGTQAWTAIAPLATGREAPQATTTGGKLYVTGGWGSTGAAVAKTEIFDPSSGAWSAGADNPKPYAGSGAAVLDGKIYVVGGCLATCGTKDVQVYDPAANSWSSGPAYPENTAWLGCAGIDGKLYCAGGSAAASTKHGYVLDPASGTWSPIADLPIDLWAMGYSAANGKLIVSGGVTNGASTLTNQGFAYDPSANSWTALPNSNNALYRGASACGFYKIGGSLGQFNAVKSGEVLPGYDQCASTADVPWLSEDKTEVTIQPGQSVKVNVTLDANVPAITQPGTYTAQLTVGAKTPYAIPPVAVTMTVNPPGTWGKITGTLTGAGCTGSPAPLTGATLQIDSWAASYTLKTDKNGQYALWLDVRNNPLTLIAAKDGWAPQTRNVKITKLTSTTADFTLKPDHTCS

Assays:
33-mer gliadin peptide [1] = system: T1, 33-mer gliadin peptide
33-mer gliadin peptide [2] = target: T2, 33-mer gliadin peptide

| Molecule | residual intact 33-mer (1-33) by HPLC-MS, Control T2h (pepsin alone, 1 mg/ml), pH 3 (33-mer gliadin peptide [1]) | 33-mer disappearance by HPLC-MS, 9 uU enzyme, 2 h, pH 3 (33-mer gliadin peptide [2]) | residual intact 33-mer (1-33) by HPLC-MS, T0 (33-mer gliadin peptide [2]) | residual intact 33-mer (1-33) by HPLC-MS, T30 + pepsin (1 mg/ml), 2 uU enzyme, pH 3 (33-mer gliadin peptide [2]) | residual intact 33-mer (1-33) by HPLC-MS, T30, 2 uU enzyme, pH 3 (33-mer gliadin peptide [2]) | residual intact 33-mer (1-33) by HPLC-MS, T2h + pepsin (1 mg/ml), 2 uU enzyme, pH 3 (33-mer gliadin peptide [2]) | residual intact 33-mer (1-33) by HPLC-MS, T2h, 2 uU enzyme, pH 3 (33-mer gliadin peptide [2]) | proteolysis of gliadin, SDS-PAGE, 5 uU enzyme, pH 3, 37 C (gliadin (Sigma G3375)) | 33-mer disappearance by HPLC-MS, 8 uU enzyme, 2 h, pH 3 (33-mer gliadin peptide [2]) | residual intact 33-mer (1-33) by HPLC-MS, T30 + pepsin (1 mg/ml), 4 uU enzyme, pH 3 (33-mer gliadin peptide [2]) | residual intact 33-mer (1-33) by HPLC-MS, T30, 4 uU enzyme, pH 3 (33-mer gliadin peptide [2]) | residual intact 33-mer (1-33) by HPLC-MS, T2h + pepsin (1 mg/ml), 4 uU enzyme, pH 3 (33-mer gliadin peptide [2]) | residual intact 33-mer (1-33) by HPLC-MS, T2h, 4 uU enzyme, pH 3 (33-mer gliadin peptide [2]) |
| --- | --- | --- | --- | --- | --- | --- | --- | --- | --- | --- | --- | --- | --- |
| pepsin | 95% residual | – | – | – | – | – | – | – | – | – | – | – | – |
| B1 | – | complete 33-mer disappearance after 2 h at pH 3 (not shown) | 100% residual | 70% residual | 50% residual | 30% residual | 20% residual | cleaved ... into small peptides to almost complete digestion in 2 hours | – | – | – | – | – |
| B2 | – | – | 100% residual | – | – | – | – | cleaved ... into small peptides to almost complete digestion in 2 hours | complete 33-mer disappearance after 2 h at pH 3 (not shown) | 70% residual | 50% residual | 45% residual | 20% residual |
